Values belong to the molecule of their own block, whether it stands above or below them. Bridge positions count the residues as written; N and C are the ends. Square brackets hold non-standard residues; d marks the D form. Ends that are not written are not given here. 1Nal = N[C@@H](Cc1cccc2ccccc12)C(=O)O; Sar = CNCC(=O)O
What was measured:
[1] = system: human, bone marrow derived CD34+ cells; test: C/BFU-e assay (erythroid colonies); type: cell-based
Description: EPO-R signaling stimulates the differentiation of bone marrow stem cells into proliferating red blood cell precursors. This assay measures the ability of test peptides to stimulate the proliferation and differentiation of red blood cell precursors from primary human bone marrow pluripotent stem cells.
For this assay, serial dilutions of test peptide are made in IMDM medium (Gibco) supplemented with 10% FBS (Hyclone). These serial dilutions, or positive control EPO peptide, are then added to methylcellulose to give a final volume of 1.5 mL. The methylcellulose and peptide mixture is then vortexed thoroughly. Aliquots (100,000 cells/mL) of human, bone marrow derived CD34+ cells (Poietics/Cambrex) are thawed. The thawed cells are gently added to 0.1 mL of 1 mg/ml DNAse (Stem Cells) in a 50 mL tube. Next, 40-50 mL IMDM medium is added gently to cells: the medium is added drop by drop along the side of the 50 mL tube for the first 10 mL, and then the remaining volume of medium is slowly dispensed along the side of the tube. The cells are then spun at 900 rpm for 20 min, and the media removed carefully by gentle aspiration. The cells are resuspended in 1 ml of IMDM medium and the cell density per mL is counted on hemacytometer slide (10 μL aliquot of cell suspension on slide, and cell density is the average count×10,000 cells/ml). The cells are then diluted in IMDM medium to a cell density of 15,000 cells/mL. A 100 μL of diluted cells is then added to each 1.5 mL methyl cellulose plus peptide sample (final cell concentration in assay media is 1000 cells/mL), and the mixture is vortexed. Allow the bubbles in the mixture to disappear, and then aspirate 1 mL using blunt-end needle. Add 0.25 mL aspirated mixture from each sample into each of 4 wells of a 24-well plate (Falcon brand). Incubate the plated mixtures at 37° C. under 5% CO2 in a humid incubator for 14 days. Score for the presence of erythroid colonies using a phase microscope (5×-10× objective, final magnification of 100×). The concentration of test peptide at which the number of formed colonies is 90% of maximum, relative to that observed with the EPO positive control, is recorded as the EC90 [See Table 2: C/BFU-e EC90].

[2] = Pharmacokinetic studies in rats; type: in vivo
[3] = Pharmacokinetic studies in dogs; type: in vivo
erythropoiesis [4] = test: Pharmacology studies in animals (erythropoiesis); type: in vivo, mice, rats, dogs, rabbits and monkeys
erythropoiesis [5] = test: Phase 1 study in normal healthy volunteers: pharmacodynamics; type: in vivo, human
Description: (§1) Peptide I has been tested in […] in one Phase 1 study. This first-in-human study with Peptide I was a randomized, double-blind, placebo-controlled, single-dose, IV, escalating dose, safety and tolerability trial. The primary objectives of the study were to evaluate the safety and pharmacokinetics of Peptide I, and to establish a pharmacologically active dose (PAD). Cohorts of seven male volunteers were scheduled to receive single doses of Peptide I or placebo in a 5:2 ratio. Cohorts were to be added at increasing dose levels until a PAD, as determined by an increase in hemoglobin from baseline values, was observed, at which point the dose level identified as the PAD would be repeated in another cohort of volunteers.
(§2) The study was initiated in four cohorts were enrolled in a consecutive manner at Peptide I doses of 0.025, 0.05, 0.1 mg/kg, and […], respectively (single dose per cohort). […] As such, the study was terminated.

[6] = Phase 1 study in normal healthy volunteers: pharmacokinetics; type: in vivo, human
Description: as §1, §2
In the 0.025 mg/kg dose group, Peptide I concentration peaked between 5 and 15 minutes, while tmax approached 1 hour for the 0.1 mg/kg dose.

[7] = Phase 1 study in normal healthy volunteers: safety; type: in vivo, human
Description: as §1, §2

[8] = Pharmacokinetic studies in rats, dogs and monkeys (general statements); type: in vivo
[9] = biological target: T1, Recombinant Human EPO R/Fc Chimera (human, UniProt P19235 25-250); test: radioligand competition; competitor: 125I-EPO; EPO R/Fc chimera 100 pg/tube, Protein-G Sepharose pull-down, gamma counting
T1 construct: extracellular domain; Bought: R&D Systems, catalog number 963-ER; also called recombinant EPOr extracellular domain fused to the Fc portion of human IgG1; recombinant erythropoietin receptor; not shown: Fc portion of human IgG1
T1 sequence (looked up): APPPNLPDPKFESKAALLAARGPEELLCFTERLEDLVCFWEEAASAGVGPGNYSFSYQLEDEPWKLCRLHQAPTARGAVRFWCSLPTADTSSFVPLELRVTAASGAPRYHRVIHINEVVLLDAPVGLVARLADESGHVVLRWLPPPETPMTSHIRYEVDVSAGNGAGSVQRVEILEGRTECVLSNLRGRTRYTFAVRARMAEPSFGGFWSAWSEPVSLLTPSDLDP

[10] = biological target: T2, recombinant EPO-R produced in Chinese Hamster Ovary cells as a fusion protein to a portion of the human … (human, UniProt P19235 25-250); test: AlphaQuest bead proximity competition; competitor: biotinylated tracer peptide SEQ ID NO: 4 (30 nM) on streptavidin donor beads, EPO-R fusion on acceptor beads
T2 sequence (looked up): T1 sequence (looked up)

[11] = five-sixth nephrectomy rats, IV 9.87 mg/kg

Molecule: peptide dimer of SEQ ID NO: 2 monomers (AcG)GLYACHMGPIT(1-nal)VCQPLR(MeG)K; a fully synthetic EPO receptor agonist (Ac-GGLYACHMGPIT[1Nal]VCQPLR[Sar]K; disulfide 6-15 (inferred); not fully specified (residue 1); printed as (AcG)GLYACHMGPIT(1-nal)VCQPLR(MeG)K; also: homodimer joined through a branched tertiary amide linker on the Lys21 side chain, PEG carried on the linker) [Peptide I]
EC90 ([1]; Table 6): 3 nM | clearance [2, 11]: 0.763 mL/h/kg | t1/2 [2, 11]: approximately 48 hours | clearance ([2]; normocythemic rats): 1.44 mL/h/kg | Elimination half life (t1/2) ([2]; rats): 21.5 to 30.7 h | Elimination half life (t1/2) [3]: 73.7 h | rise in reticulocytes and RBCs as measured by hemoglobin levels (erythropoiesis [4]; rats and monkeys): dose proportional | stimulation of erythropoiesis (erythropoiesis [4]; single or repeat dose, mice, rats (normocythemic and nephrectomized), dogs, rabbits, monkeys): potent stimulator of erythropoiesis with dose-dependent activity | average hemoglobin levels at Day 42 (erythropoiesis [5]; 0.1 mg/kg): returned to baseline | average maximum increase from baseline in hemoglobin (erythropoiesis [5]; 0.1 mg/kg, 10 recipients): 1.36 ± 0.39 g/dL | difference in change from baseline hemoglobin versus placebo (erythropoiesis [5]; 0.1 mg/kg, at Day 42 as throughout the study): ≥ 0.5 g/dL | time of maximum reticulocyte counts postdose (erythropoiesis [5]; all dose cohorts): approximately 7 days | hemoglobin response and change from baseline (mean and maximum) (erythropoiesis [5]; over 28 days post-dose): dose-dependent increases | Reticulocyte count (absolute number and percent) (erythropoiesis [5]; single IV 0.025, 0.05, 0.1 mg/kg): dose-dependent increase | PAD associated with at least a 1.0 g/dL increase in hemoglobin (erythropoiesis [5]; single IV dose, NHV): 0.1 mg/kg | Serum EPO levels (erythropoiesis [5]; with increasing dose): transiently decreased | Plasma clearance, geometric mean ([6]; 0.025 mg/kg): 78.0 mL/h | Volume of distribution, mean ([6]; 0.025 mg/kg): 2165 mL | half-life, mean ([6]; 0.025 mg/kg): 19.2 h | half-life, range ([6]; 0.025 mg/kg): 16.7 to 21.9 h | plasma concentrations quantifiable (>25 ng/mL) up to ([6]; 0.025 mg/kg): up to 96 hours | Plasma clearance, geometric mean ([6]; 0.05 mg/kg): 70.7 mL/h | Volume of distribution, mean ([6]; 0.05 mg/kg): 1903 mL | half-life, mean ([6]; 0.05 mg/kg): 18.7 h | half-life, range ([6]; 0.05 mg/kg): 15.3 to 25.1 h | plasma concentrations quantifiable (>25 ng/mL) up to ([6]; 0.05 mg/kg): ≤ 5 days | Plasma clearance, geometric mean ([6]; 0.1 mg/kg): 59.2 mL/h | Volume of distribution, mean ([6]; 0.1 mg/kg): 2010 mL | half-life, mean ([6]; 0.1 mg/kg): 23.5 h | half-life, range ([6]; 0.1 mg/kg): 17.7 to 33.1 h | plasma concentrations quantifiable (>25 ng/mL) up to ([6]; 0.1 mg/kg): ≤ 7 days | tmax ([6]; 0.1 mg/kg): ~1 h | AUC(0-infinity) relationship with dose ([6]; dose normalized, ANOVA): non-linearity at the highest dose | Cmax relationship with dose ([6]; dose normalized, ANOVA): linear relationship with dose | plasma concentration at which metabolic/elimination processes saturate ([6]; human, in vivo): > 400 ng/mL | number of adverse events ([7]; Peptide I group): 22 | AEs considered probably not related to the study drug ([7]; Peptide I recipients): 15/22 | Serious Adverse Events or withdrawals due to an AE ([7]; human, in vivo): no Serious Adverse Events (SAEs) or withdrawals from the study due to an AE | changes in vital signs, ECGs or laboratory values ([7]; human, in vivo): no clinically significant changes | subjects who developed antibodies specific to Peptide I ([7]; human, in vivo): None | overall safety and tolerability ([7]; single IV doses of 0.025, 0.05 or 0.1 mg/kg): safe and well tolerated | abdominal pain ([7]; subjects dosed with Peptide I): 10.0% | headache ([7]; subjects dosed with Peptide I): 20.0% | nasopharyngitis ([7]; subjects dosed with Peptide I): 10.0% | nausea ([7]; subjects dosed with Peptide I): 10.0% | subjects who experienced adverse events ([7]; subjects receiving Peptide I): 11 of 20 | plasma persistence ([8]; in comparison to currently marketed rHuEPO products): sustained plasma persistence | Biodistribution ([8]; in vivo): primarily to the plasma fraction

B1: Peptide I (SEQ ID NO: 2) (peptide)
peptide: Ac-GGLYACHMGPIT[1Nal]VCQPLR[Sar]K
modifications: disulfide 6-15; not fully specified (residue 21); printed as (AcG)GLYACHMGPIT(1-nal)VCQPLR(MeG)K; also: PEGylated homodimer, second copy joined via the branched linker on K21 epsilon-amine, linker, PEG size and linkage not given here
IC50 [9]: 111 nM

B2: Peptide II (SEQ ID NO: 3) (peptide)
peptide: Ac-GGLYACHMGPIT[1Nal]VCQPLR[Sar]
modifications: disulfide 6-15; not fully specified (C-terminus); printed as (AcG)GLYACHMGPIT(1-nal)VCQPLR(MeG); also: homodimer of two monomers, C-termini joined to alpha- and epsilon-amino groups of a lysine linker with spacer and PEG
IC50 [10]: 0.11 nM

More lines, now with the values ahead:

EC90 ([1]; Table 2): 2.2 nM
Molecule: peptide dimer of SEQ ID NO: 3 monomers (AcG)GLYACHMGPIT(1-nal)VCQPLR(MeG) [Peptide II] (Ac-GGLYACHMGPIT[1Nal]VCQPLR[Sar]; disulfide 6-15 (inferred); not fully specified (residue 1); printed as (AcG)GLYACHMGPIT(1-nal)VCQPLR(MeG); also: homodimer, C-termini joined to the alpha- and epsilon-amino groups of a lysine linker, spacer and PEG on the linker)

EC90 ([1]; Table 2): 2.7 nM
Molecule: peptide dimer of SEQ ID NO: 3 monomers (AcG)GLYACHMGPIT(1-nal)VCQPLR(MeG) [Peptide III] (Ac-GGLYACHMGPIT[1Nal]VCQPLR[Sar]; disulfide 6-15 (inferred); not fully specified (residue 1); printed as (AcG)GLYACHMGPIT(1-nal)VCQPLR(MeG); also: homodimer, C-termini joined to the alpha- and epsilon-amino groups of a lysine linker, spacer and PEG on the linker)

EC90 ([1]; Table 4): 6.2 nM
Molecule: Peptide IV: peptide dimer of SEQ ID NO: 1 monomers (AcG)GLYACHMGPIT(1-nal)VCQPLRK (Ac-GGLYACHMGPIT[1Nal]VCQPLRK; disulfide 6-15 (inferred); not fully specified (residue 1); printed as (AcG)GLYACHMGPIT(1-nal)VCQPLRK; also: homodimer joined through a branched tertiary amide linker on the Lys20 side chain, PEG carried on the linker)

Source: patent US7906485B2, “Erythropoietin receptor peptide formulations and uses” (Affymax, Inc., priority 2005, dated 2011)
